Biological target: rPTB4 (pQE-PTB4) (UniProt P26599 1-557)
Assay: UV cross-linking

Chain of rPTB4 (pQE-PTB4) (P26599 whole entry): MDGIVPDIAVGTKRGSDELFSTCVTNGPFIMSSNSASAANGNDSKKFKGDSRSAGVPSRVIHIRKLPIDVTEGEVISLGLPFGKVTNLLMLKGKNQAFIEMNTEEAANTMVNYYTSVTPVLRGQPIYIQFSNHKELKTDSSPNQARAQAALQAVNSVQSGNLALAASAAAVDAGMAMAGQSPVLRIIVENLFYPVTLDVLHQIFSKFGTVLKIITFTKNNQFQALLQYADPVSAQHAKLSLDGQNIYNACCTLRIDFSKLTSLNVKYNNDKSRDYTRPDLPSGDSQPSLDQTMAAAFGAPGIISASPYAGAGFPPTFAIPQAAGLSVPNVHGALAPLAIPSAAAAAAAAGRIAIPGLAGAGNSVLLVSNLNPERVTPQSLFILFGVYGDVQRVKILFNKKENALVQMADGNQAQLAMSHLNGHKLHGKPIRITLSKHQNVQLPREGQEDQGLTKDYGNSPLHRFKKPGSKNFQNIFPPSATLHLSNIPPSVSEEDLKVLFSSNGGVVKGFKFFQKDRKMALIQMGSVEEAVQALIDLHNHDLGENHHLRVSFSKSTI

B1: MBNL SELEX RNA D12 (ssRNA)
RNA: GGGAGACAAGCUCCUCCUGCGCUCUUUGCUUGCCCUGCUGUGUCGAAUU
**Q.** Does B1 bind?
**A.** no binding
